B1: Arabidopsis thaliana cytosolic malate dehydrogenase, oxidized form (enzyme, UniProt P93819 1-332, looked up)
chain: MAKEPVRVLVTGAAGQIGYALVPMIARGIMLGADQPVILHMLDIPPAAEALNGVKMELIDAAFPLLKGVVATTDAVEGCTGVNVAVMVGGFPRKEGMERKDVMSKNVSIYKSQAAALEKHAAPNCKVLVVANPANTNALILKEFAPSIPEKNISCLTRLDHNRALGQISERLSVPVSDVKNVIIWGNHSSSQYPDVNHAKVQTSSGEKPVRELVKDDAWLDGEFISTVQQRGAAIIKARKLSSALSAASSACDHIRDWVLGTPEGTFVSMGVYSDGSYSVPSGLIYSFPVTCRNGDWSIVQGLPIDEVSRKKMDLTAEELKEEKDLAYSCLS
modifications: Cys330–Cys330 intermolecular disulfide bond (oxidized form)
notes: cytosolic malate dehydrogenase (MDH), Arabidopsis thaliana, AT1G04410; also called MDH; oxidized MDH; source: cloned and purified as described in earlier work; oxidized by incubation with 50 μM CuCl2 for 1 h at 30°C
B2: Trxh1 mutant with a C43S substitution (natural protein, Arabidopsis thaliana, UniProt P29448 1-114, looked up)
chain: MASEEGQVIACHTVETWNEQLQKANESKTLVVVDFTASWCGPSRFIAPFFADLAKKLPNVLFLKVDTDELKSVASDWAIQAMPTFMFLKEGKILDKVVGAKKDELQSTIAKHLA
notes: thioredoxin h1 (Trxh1), cytosolic, Arabidopsis thaliana, AT3G51030, with C43S; Lacks the second cysteine of the catalytic motif; also called Trxh1CS; Trxh1CS mutant; source: expressed and purified as the wild-type Trxh1, with 0.5 mM DTT in all purification procedures

How the values were obtained:
[1] = molecular target: the molecule itself; assay: SEC; TSK-G2000SWXL in H buffer, 280 nm; as a2 but without NEM treatment before the chromatography (for MDH: second round of the fractionated complex)
[2] = molecular target: Trxh1 mutant with a C43S substitution (Arabidopsis thaliana) (UniProt P29448); assay: SPR; Biacore X, 25°C; Trx variant immobilised as ligand on a CM5 chip by amine coupling (800–900 RU); target protein injected as analyte; H buffer (10 mM HEPES-NaOH, 150 mM NaCl, 50 μM EDTA, pH 7.4) with 0.005% Surfactant P20; 1:1 model for MDH, double exponential model for PrxQ; apparent (mixed disulfide formation with Trxh1CS)
[3] = molecular target: the molecule itself; assay: mixed disulfide complex formation, non-reducing SDS-PAGE with N-terminal sequencing; 50 μM Trxh1CS and 50 μM PrxQ incubated for the periods indicated, quenched with 5% TCA, non-reducing SDS-PAGE

Binder	binding result [1]	koff [2] [s⁻¹]	kon [2] [M⁻¹ s⁻¹]	binding result [3]
B1	binds	0.000301	247	–
B2	–	–	–	binds

— publication PMC3867114, “Kinetic analysis of the interactions between plant thioredoxin and target proteins” (Frontiers in Plant Science, 2013)
